Data reported in article doi:10.1101/630269.

Molecular target: Dendritic cell-specific ICAM-3 grabbing non-integrin (DC-SIGN, CD209) (human) (UniProt Q9NNX6)
Experiment: virion-cell binding assay

Sequence of UniProt Q9NNX6 (Q9NNX6 whole entry): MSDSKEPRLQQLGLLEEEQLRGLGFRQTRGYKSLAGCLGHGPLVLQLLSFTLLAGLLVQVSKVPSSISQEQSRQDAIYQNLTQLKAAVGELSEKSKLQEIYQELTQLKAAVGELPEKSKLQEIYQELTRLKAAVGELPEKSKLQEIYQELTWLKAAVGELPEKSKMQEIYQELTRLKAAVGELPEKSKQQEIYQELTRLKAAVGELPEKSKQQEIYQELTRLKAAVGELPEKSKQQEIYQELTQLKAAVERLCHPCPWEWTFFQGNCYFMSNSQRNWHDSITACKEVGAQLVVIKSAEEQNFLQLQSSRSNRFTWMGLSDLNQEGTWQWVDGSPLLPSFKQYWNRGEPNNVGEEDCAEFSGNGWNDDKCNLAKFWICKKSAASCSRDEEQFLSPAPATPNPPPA

## EBOV Makona glycoprotein GP-V82 (natural protein)
  fold binding relative to GP-A82: 2 fold
